T1: Human Trop-2-mFc (Homo sapiens, UniProt P09758)
T1 construct: Monomeric Trop-2 extracellular domain prepared from papain digestion of Trop-2-Fc fusion protein
T1 sequence (P09758 27-274 limits assumed): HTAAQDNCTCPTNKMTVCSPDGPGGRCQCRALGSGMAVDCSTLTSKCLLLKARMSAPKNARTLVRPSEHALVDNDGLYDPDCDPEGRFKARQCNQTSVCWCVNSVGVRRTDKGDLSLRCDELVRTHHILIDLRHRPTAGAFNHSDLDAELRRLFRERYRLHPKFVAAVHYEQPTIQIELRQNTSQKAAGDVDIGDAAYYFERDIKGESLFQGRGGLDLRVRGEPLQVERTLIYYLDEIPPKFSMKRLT

T2: human Trop-2-hFc (Homo sapiens, UniProt P09758)
T2 construct: Monomeric Trop-2 extracellular domain prepared from papain digestion of Trop-2-Fc fusion protein
T2 sequence (P09758 27-274 limits assumed): T1 sequence (P09758 27-274 limits assumed)

B1: h7E6SVG-LCQ04/K222R-vc0101: h7E6SVG K222R with light chain LCQ04 tag conjugated with AcLys-vc-PABC-0101 (conjugate)
VH: QVQLQESGPGLVKPSETLSLTCTVSGGSISSYGVHWIRQPPGKGLEWIGVIWTSGVTDYNSALMGRVTISVDTSKNQFSLKLSSVTAADTAVYYCARDGDYDRYTMDYWGQGTLVTVSS
VL: DIVMTQSPDSLAVSLGERATINCRASKSVSTSGYSYMHWYQQKPGQPPKLLIYLASNLESGVPDRFSGSGSGTDFTLTISSLQAEDVAVYYCQHSRELPYTFGQGTKLEIK
B2: h7E6_SVGL: humanized anti-Trop-2 antibody, VL SEQ ID NO: 6, VH SEQ ID NO: 5 (antibody, V domains shown)
VH: B1 VH
VL: B1 VL with G33L
B3: h7E6_L: humanized anti-Trop-2 antibody comprising SEQ ID NOs: 4 and 6 (antibody, V domains shown)
VH: B1 VH with S54G, V56S, G65S
VL: B1 VL with G33L
B4: h7E6: humanized anti-Trop-2 antibody, VL SEQ ID NO: 3, VH SEQ ID NO: 4 (antibody, V domains shown)
VH: B1 VH with S54G, V56S, G65S
VL: B1 VL
B5: h7E6_SVGN: humanized anti-Trop-2 antibody, VL SEQ ID NO: 7, VH SEQ ID NO: 5 (antibody, V domains shown)
VH: B1 VH
VL: B1 VL with G33N
B6: h7E6_N: humanized anti-Trop-2 7E6 antibody, presumably VH SEQ ID NO: 4 with VL_N SEQ ID NO: 7 (antibody, V domains shown)
VH: B1 VH with S54G, V56S, G65S
VL: B1 VL with G33N
B7: h6G11: humanized anti-Trop-2 antibody, VL SEQ ID NO: 10, VH SEQ ID NO: 11 (antibody, V domains shown)
VH: QVQLVQSGAEVKKPGASVKVSCKASGYTFTSYWINWVRQAPGQGLEWMGNIYPSDSYSNYNQKFKDRVTMTRDTSTSTVYMELSSLRSEDTAVYYCARGSSFDYWGQGTLVTVSS
VL: EIVLTQSPATLSLSPGERATLSCRASQTIGTSIHWYQQKPGQAPRLLIYYASESISGIPARFSGSGSGTDFTLTISSLEPEDFAVYYCQQSNSWPFTFGQGTKLEIK
B8: h6G11_FKG_SF: humanized anti-Trop-2 antibody, VL SEQ ID NO: 12, VH SEQ ID NO: 13 (antibody, V domains shown)
VH: B7 VH with Y52F, Q62K, S101G
VL: B7 VL with Q89S, N92F
B9: h7E6-L-TG1-vcMMAD: h7E6_L hIgG1 with TG1 tag conjugated with AcLys-vcMMAD (conjugate)
VH: B1 VH with S54G, V56S, G65S
VL: B1 VL with G33L
B10: h7E6-SVGN-TG1-vcMMAD: h7E6_SVGN hIgG1 with TG1 tag conjugated with AcLys-vcMMAD (conjugate)
VH: B1 VH
VL: B1 VL with G33N
B11: h7E6-N-TG1-vcMMAD: h7E6_N hIgG1 with TG1 tag conjugated with AcLys-vcMMAD (conjugate)
VH: B1 VH with S54G, V56S, G65S
VL: B1 VL with G33N
B12: h7E6-WT-TG1-vcMMAD: h7E6-WT hIgG1 with TG1 tag conjugated with AcLys-vcMMAD (conjugate)
VH: B1 VH with S54G, V56S, G65S
VL: B1 VL
B13: h7E6-SVGL-TG1-vcMMAD: h7E6_SVGL hIgG1 with TG1 tag conjugated with AcLys-vcMMAD (conjugate)
VH: B1 VH
VL: B1 VL with G33L

The values below come from patent US10100114B2, “Antibodies specific for TROP-2 and their uses” (RINAT NEUROSCIENCE CORP., priority 2011, dated 2018).

Numbering of substitutions follows the chain as printed. Names may count otherwise.

In the first assay the test system is BxPC3 xenograft. As to the kind of experiment: In vivo efficacy of humanized Trop-2 ADCs, pancreatic tumor BxPC3 xenograft model. The arrangement: species or system CB17/SCID mice. To be noted: single dose, tail vein; FIGS. 9A-9C. The protocol: In vivo efficacy studies of Trop-2 ADCs were performed with target-expressing BxPC3 xenograft model. Two million BxPC3 pancreatic cancer cells were implanted subcutaneously into 5-8 weeks old CB17/SCID mice until the tumor sizes reached between 300-400 mm^3. […] Tumor volume was measured once a week by a Caliper device and calculated with the following formula: Tumor volume=(length×width^2)/2. Studies were terminated before their tumor volumes reached 2000 mm^3.
(In xenograft studies the graft and the host belong to different species.)
For the molecule B1, the “tumor response, BxPC3 xenograft” value is listed as “tumor regression”.

For a further assay, the system named is SW620 (Trop-2 −) cells. As to the kind of experiment: Flow cytometry binding, SW620 cells. It counts as cell-based. To be noted: Table 10, 300,000 cells, 1 ug antibody. The procedure:
For A431 cell staining, 200,000 cells were incubated with 0.5 ug antibody in 100 uL binding buffer (PBS (Phosphate Buffered Saline)+0.5% BSA (Bovine Serum Albumin)), followed by incubation with Dylight488-conjugated goat anti-human (Fab′)2-specific secondary antibody from Jackson immunoresearch Laboratories (West Grove, Pa.). For Colo205 and SW620 cells, 300,000 cells were used with 1 ug of primary antibody, followed by AlexaFluor 647 anti-human (Fab′)2-specific secondary antibody from Jackson immunoresearch Laboratories (West Grove, Pa.).
Similar to Example 7a), binding of chimeric mouse and humanized anti-Trop-2 6G11 antibodies (expressed in human IgG1 subtype) were assessed on Trop-2 expressing (A431 and Colo205) and non-expressing (SW620) cells by flow cytometry. 300,000 cells were used with 1 ug of primary antibody, followed by AlexaFluor 647 anti-human (Fab′)2-specific secondary antibody.
B2: the “% positive” value came out at 2.6% and the MFI came out at 135.
B3: the “% positive” value was determined as 2.5% and the MFI stood at 158.
On the same counts, the results for B4 are 2.1% and 143.
On the same counts, the results for B5 are 2.5% and 140.
Regarding B6, the “% positive” value is listed as 2.3% and the MFI is 151.

Staying with this assay, now noted: Table 11, 300,000 cells, 1 ug antibody.
As to B7, the “% positive” value worked out at 3.9% and the MFI is 154.
On to B8, for which the “% positive” value is reported as 2.5% and the MFI was 157.

In a further assay the test system is SW620 cells (Trop-2 non-expressing). The assay is described as follows: Cytotoxicity of ADCs (CellTiter-Glo), SW620. It counts as cell-based. Particulars: Table 12; SW620 (Trop-2−); 96 hours after treatment. The procedure:
Target expressing (A431, BxPC3, CAPAN-2 and Colo205) or non-expressing (SW620) cells were seeded on white walled clear bottom plates at 2000 cells/well for 24 hours before treatment. Cells were treated with 4 fold serially diluted antibody-drug conjugates in triplicates. Cell viability was determined by CellTiter-Glo® Luminescent Cell Viability Assay 96 (Promega, Madison Wis.) 96 hours after treatment. Relative cell viability was determined as percentage of untreated control. IC50 was calculated by Prism software.
2-methylalanyl-N-[(3R,4S,5S)-3-methoxy-1-{(2S)-2-[(1R,2R)-1-methoxy-2-methyl-3-oxo-3-{[(1S)-2-phenyl-1-(1,3-thiazol-2-yl)ethyl]amino}propyl]pyrrolidin-1-yl}-5-methyl-1-oxoheptan-4-yl]-N-methyl-L-valinamide is a novel auristatin, as described in U.S. Application Nos. 61/561,255 and 61/676,423. Method of conjugating Trop-2 antibodies using transglutaminase tags is described in Example 9. Target expressing or non-expressing (SW620) cells were seeded on white walled clear bottom plates at 2000 (A431, BxPC3, NCI-H292, NCI-H1650, MDA-MB-468 and SW620), 2500 (Calu-3) or 3000 (OVCAR3 and SKBR3) cells per well for 24 hours before treatment. Cells were treated with 4 fold serially diluted antibody-drug conjugates in triplicates. Cell viability was determined by CellTiter-Glo® Luminescent Cell Viability Assay 96 (Promega, Madison, Wis.) 96 hours after treatment. Relative cell viability was determined as percentage of untreated control. IC50 was calculated by GraphPad Prism 5 software and expressed as concentration (nM) of total Ab.
Consider B9, for which the “Ab-IC50” value is 8.535 µg/mL.
For B10, the “Ab-IC50” value is 10.410 µg/mL.
On the same count and under the same terms, the value for B11 was 11.150 µg/mL.
On the same count and under the same terms, the figure for B12 is 10.330 µg/mL; for B13 it is 10.800 µg/mL.

Staying with this assay, now noted: Table 12; SW620 (Trop-2−); 96 hours after treatment; read-out: Ab-IC50.
Turning to B9, the 50% inhibitory concentration (IC50) came out at 56.9 nM.
In the case of B10, the IC50 is 69.4 nM.
For B11, the IC50 was 74.3 nM.
Still for that read-out and setting: the figure for B12 is 68.9 nM; for B13 it is 72 nM.

Staying with this assay, now noted: Table 13; SW620, Trop2 expression −; 96 hours; concentration of total Ab.
On to B1, for which the IC50 is greater than 267 nM.

For the next assay, the target named is T1, Human Trop-2-mFc. The assay is described as follows: Biacore SPR affinity of humanized 6G11 Fab. It counts as binding. Particulars: Fab fragments injected over captured human Trop-2-mFc. The protocol: The affinities of humanized 6G11 antibodies were measured on a surface plasmon resonance Biacore™ 2000 biosensor equipped with a research-grade CM5 sensor chip (Biacore™ AB, Uppsala, Sweden—now GE Healthcare). Human Trop-2-mFc protein was captured on the CM5 chip coupled with anti-mouse Fc. Human 6G11_WT or Human 6G11_FKG_SF chimeric Fab fragments were injected as 3 fold dilution series.
For B7, the “ka” value is 360000 M⁻¹ s⁻¹ and the “kd” value worked out at 0.0096 s⁻¹.
On the same counts, the results for B8 are 640000 M⁻¹ s⁻¹ and 0.00038 s⁻¹.

The next assay relates to cynomolgus monkey Trop-2-hFc. The assay is described as follows: Biacore SPR affinity of chimeric and humanized 7E6 Fab, cynomolgus Trop-2. It counts as binding. Particulars: recombinant Fab fragments injected over captured cynomolgus monkey Trop-2-hFc. The source says:
(§1) The human Trop-2-hFc or cynomolgus monkey Trop-2-hFc proteins were captured on the CM5 EDA chip 37 sensor surface coupled with anti-human Fc.
As for B2, the “ka” value was 130000 M⁻¹ s⁻¹ and the “kd” value is 7.42e-05 s⁻¹.
On the same counts, the results for B3 are 126000 M⁻¹ s⁻¹ and 0.000335 s⁻¹.
For B4 the same measures were 144000 M⁻¹ s⁻¹ and 0.00635 s⁻¹.

The next assay addresses T2, human Trop-2-hFc. The assay is described as follows: Biacore SPR affinity of chimeric and humanized 7E6 Fab, human Trop-2. It counts as binding. Particulars: recombinant Fab fragments injected over captured human Trop-2-hFc.
From the text: as §1
As for B2, the “ka” value amounted to 131000 M⁻¹ s⁻¹ and the “kd” value amounted to 3.27e-05 s⁻¹.
With B3, the “ka” value stood at 130000 M⁻¹ s⁻¹ and the “kd” value was 0.00015 s⁻¹.
On the same counts, the results for B4 are 139000 M⁻¹ s⁻¹ and 0.00294 s⁻¹.

The term IC50 denotes the concentration that inhibits the measured activity by half.
